Starred links: 1 amine or outer side, 2 acyl side, 3 side chain; linkers in the order of their positions; H or OH if unused. Non-standard residues stand in square brackets, D forms with d. Groups on a side chain read outwards from the residue. Primed or numbered codes have the meaning given here. No end group written: not given here. *: point of attachment. PEG12 = NCCOCCOCCOCCOCCOCCOCCOCCOCCOCCOCCOCCOCCC(=O)O; C18 diacid = O=C(O)CCCCCCCCCCCCCCCCC(=O)*; Dip = N[C@H](C(=O)O)C(c1ccccc1)c1ccccc1; Heptadecanoyl = CCCCCCCCCCCCCCCCC(=O)*; γGlu = O=C(O)[C@H](CCC(=O)[*:2])N[*:1]; Stearoyl = CCCCCCCCCCCCCCCCCC(=O)*; Palmitoyl = CCCCCCCCCCCCCCCC(=O)*; αMeF = C[C@](N)(Cc1ccccc1)C(=O)O; Myristoyl = CCCCCCCCCCCCCC(=O)*; (PEG)2 = polyethylene glycol 2; PEG2′ = polyethylene glycol 2; PEG4′ = polyethylene glycol; Dodecyl = CCCCCCCCCCCC*; PEG2 = NCCOCCOCCC(=O)O; AEEA = NCCOCCOCC(=O)O; Aib = CC(C)(N)C(=O)O
B1: Peptide 99 (peptide)
peptide: HSQGS[αMeF]TSDVSK[Aib]LDSK([(PEG)2-(PEG)2-γGlu-γGlu-Palmitoyl])AAQD[αMeF]VQ[Aib]IIE-NH2
B2: Peptide 100 (peptide)
peptide: HSQGS[αMeF]TSDVSK[Aib]LDSK([(PEG)2-(PEG)2-γGlu-γGlu-Stearoyl])AAQD[αMeF]VQ[Aib]IAN-NH2
B3: Peptide 65 (peptide)
peptide: HSQGS[αMeF]TSDVSK[Dip]LDSK([PEG2-PEG2-γGlu-γGlu-C18 diacid])AAQD[αMeF]VE[Aib]IINT-NH2
B4: Peptide 67 (peptide)
peptide: H[Aib]QGS[αMeF]TSDVSK[Dip]LDSK([PEG2′-PEG2′-γGlu-Palmitoyl])AAQD[αMeF]VQ[Aib]IAN-NH2
B5: Peptide 61 (peptide)
peptide: HSQGS[αMeF]TSDVSK[Dip]LDSK([(PEG)2-γGlu-(PEG)2-γGlu-Stearoyl])AAQD[αMeF]VE[Aib]IINT-NH2
B6: Peptide 88 (peptide)
peptide: HSQGS[αMeF]TSDVSK[αMeF]LDSK([(PEG)2-(PEG)2-γGlu-γGlu-Heptadecanoyl])AAQD[αMeF]VQ[Aib]IAN-NH2
B7: Peptide 87 (peptide)
peptide: HSQGS[αMeF]TSDVSK[αMeF]LDSK([(PEG)2-(PEG)2-γGlu-γGlu-Palmitoyl])AAQD[αMeF]VQ[Aib]IAN-NH2
B8: Peptide 72 (peptide)
peptide: H[Aib]QGS[αMeF]TSDVSK[αMeF]LDSK([PEG4′-γGlu-γGlu-Palmitoyl])AAQD[αMeF]VE[Aib]LEAGG-NH2
B9: Peptide 80 (peptide)
peptide: HSQGS[αMeF]TSDVSK[αMeF]LDSKAAQD[αMeF]VQ[Aib]LEAGG-NH2
modifications: not fully specified (residue 17)
B10: Peptide 11 (peptide)
peptide: H[Aib]HGS[αMeF]TSDVSK[αMeF]LDSK([AEEA-AEEA-γGlu-C18 diacid])AAQDFVQ[Aib]IANT-NH2
B11: Peptide 58 (peptide)
peptide: HSQGS[αMeF]TSDVSK[Dip]LDSK([PEG12-γGlu-γGlu-Stearoyl])AAQD[αMeF]VE[Aib]IINT-NH2
modifications: N-terminus assumed
SMILES: CCCCCCCCCCCCCCCCCC(=O)N[C@@H](CCC(=O)N[C@@H](CCC(=O)NCCOCCOCCOCCOCCOCCOCCOCCOCCOCCOCCOCCOCCC(=O)NCCCC[C@H](NC(=O)[C@H](CO)NC(=O)[C@H](CC(=O)O)NC(=O)[C@H](CC(C)C)NC(=O)[C@@H](NC(=O)[C@H](CCCCN)NC(=O)[C@H](CO)NC(=O)[C@@H](NC(=O)[C@H](CC(=O)O)NC(=O)[C@H](CO)NC(=O)[C@@H](NC(=O)[C@](C)(Cc1ccccc1)NC(=O)[C@H](CO)NC(=O)CNC(=O)[C@H](CCC(N)=O)NC(=O)[C@H](CO)NC(=O)[C@@H](N)Cc1c[nH]cn1)[C@@H](C)O)C(C)C)C(c1ccccc1)c1ccccc1)C(=O)N[C@@H](C)C(=O)N[C@@H](C)C(=O)N[C@@H](CCC(N)=O)C(=O)N[C@@H](CC(=O)O)C(=O)N[C@@](C)(Cc1ccccc1)C(=O)N[C@H](C(=O)N[C@@H](CCC(=O)O)C(=O)NC(C)(C)C(=O)N[C@H](C(=O)N[C@H](C(=O)N[C@@H](CC(N)=O)C(=O)N[C@H](C(N)=O)[C@@H](C)O)[C@@H](C)CC)[C@@H](C)CC)C(C)C)C(=O)O)C(=O)O
B12: Peptide 63 (peptide)
peptide: HSQGS[αMeF]TSDVSK[Dip]LDSK([(PEG)2-(PEG)2-γGlu-γGlu-Myristoyl])AAQD[αMeF]VE[Aib]IINT-NH2
B13: Peptide 60 (peptide)
peptide: HSQGS[αMeF]TSDVSK[Dip]LDSK([γGlu-(PEG)2-γGlu-(PEG)2-Stearoyl])AAQD[αMeF]VE[Aib]IINT-NH2
B14: Peptide 59 (peptide)
peptide: HSQGS[αMeF]TSDVSK[Dip]LDSK([γGlu-γGlu-(PEG)2-(PEG)2-Stearoyl])AAQD[αMeF]VE[Aib]IINT-NH2
B15: Peptide 64 (peptide)
peptide: HSQGS[αMeF]TSDVSK[Dip]LDSK([PEG2′-PEG2′-γGlu-γGlu-Palmitoyl])AAQD[αMeF]VE[Aib]IINT-NH2
B16: Peptide 89 (peptide)
peptide: HSQGS[αMeF]TSDVSK[αMeF]LDSK([PEG2′-PEG2′-γGlu-γGlu-Palmitoyl])AAQD[αMeF]VQ[Aib]IAN-NH2
modifications: not fully specified
B17: Peptide 79 (peptide)
peptide: HSQGS[αMeF]TSDVSK[αMeF]LDSK([PEG2′-PEG2′-γGlu-γGlu-Palmitoyl])AAQD[αMeF]VQ[Aib]LEAGG-NH2
B18: Peptide 62 (peptide)
peptide: HSQGS[αMeF]TSDVSK[Dip]LDSK([(PEG)2-(PEG)2-γGlu-γGlu-Dodecyl])AAQD[αMeF]VE[Aib]IINT-NH2

What was measured:
human GLP-1 receptor = human GLP-1 receptor (human, UniProt P43220); test: cell-based or functional assay
human glucagon receptor = human glucagon receptor (human, UniProt P47871); test: cell-based or functional assay

Binder | cAMP production, hGLP-1R EC50 (pM) (human GLP-1 receptor) | cAMP production, hGluc-R EC50 (pM) (human glucagon receptor)
B1 | 2.21 | 33.2
B2 | 0.258 | 40.5
B3 | 1230 | 2060
B4 | 2.43 | 9.49
B5 | 4.12 | 9.55
B6 | 1.04 | 6.47
B7 | 1.29 | 8.46
B8 | 3.42 | 73.7
B9 | 1.03 | 9.18
B10 | 157 | 118
B11 | 3.9 | 11.3
B12 | 3.14 | 2.49
B13 | 5.16 | 21.1
B14 | 6.18 | 28.4
B15 | 2.57 | 3.06
B16 | 3.77 | 15.3
B17 | 1.73 | 10.7
B18 | 10.1 | 15.2
